Laboratory results published in paper doi:10.1101/2020.06.25.170399 (bioRxiv, 2020).

Target: T1, γ subunit of human NAD-dependent isocitrate dehydrogenase (IDH3) (human, UniProt P51553 40-393)
T1 sequence: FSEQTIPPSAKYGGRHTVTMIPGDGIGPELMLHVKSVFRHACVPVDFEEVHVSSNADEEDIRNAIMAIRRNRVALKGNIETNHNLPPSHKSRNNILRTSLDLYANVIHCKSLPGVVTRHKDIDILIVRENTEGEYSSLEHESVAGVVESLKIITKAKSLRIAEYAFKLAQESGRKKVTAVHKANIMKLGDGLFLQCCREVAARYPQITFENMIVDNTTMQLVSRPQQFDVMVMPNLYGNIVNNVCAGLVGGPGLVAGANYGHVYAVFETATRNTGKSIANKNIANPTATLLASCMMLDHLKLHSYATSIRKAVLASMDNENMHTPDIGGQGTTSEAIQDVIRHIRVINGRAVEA
Test: SEC-MALS

B1: α subunit of human NAD-dependent isocitrate dehydrogenase (IDH3) (natural protein)
chain: TGGVQTVTLIPGDGIGPEISAAVMKIFDAAKAPIQWEERNVTAIQGPGGKWMIPSEAKESMDKNKMGLKGPLKTPIAAGHPSMNLLLRKTFDLYANVRPCVSIEGYKTPYTDVNIVTIRENTEGEYSGIEHVIVDGVVQSIKLITEGASKRIAEFAFEYARNNHRSNVTAVHKANIMRMSDGLFLQKCREVAESCKDIKFNEMYLDTVCLNMVQDPSQFDVLVMPNLYGDILSDLCAGLIGGLGVTPSGNIGANGVAIFESVHGTAPDIAGKDMANPTALLLSAVMMLRHMGLFDHAARIEAACFATIKDGKSLTKDLGGNAKCSDFTEEICRRVKDLD
binding result: binds
